The values that follow come from article PMC8654239, “The neutrophil protein CD177 is a novel PDPN receptor that regulates human cancer-associated fibroblast physiology” (PLoS ONE, 2021).

Assay [1] has as its target PDPN ectodomain, monomeric, Avi-tagged, site-specifically biotinylated (Fc tag removed) (human) (UniProt Q86YL7).
Assay [2] concerns the target T1, CLEC-2 recombinant ectodomain, Fc-tagged (human, UniProt Q9P126 55-229).
T1 construct: C-type lectin receptor CLEC-2 (CLEC1B), human, ectodomain; The methods describe a general pRK5 vector with a C-terminal human Fc tag; CLEC-2 is a type II membrane protein, so the real end of the Fc may differ; also called Clec1b; recombinant human CLEC-2
Description: SPR; CLEC-2 or CD177 ectodomains immobilised by amine coupling, 300-400 resonance units; Avi-tagged monomeric PDPN ectodomain as analyte; equilibrium fit for CD177, Langmuir model for CLEC-2. The conditions noted are these: both partners purified. A general note: Surface plasmon resonance follows binding to a sensor surface in real time, without labels.

Assay [3] deals with CD177 recombinant ectodomain, Fc-tagged (human) (UniProt Q8N6Q3). The assay is described as above.
CD177 recombinant ectodomain, Fc-tagged (human), sequence (Q8N6Q3 22-408): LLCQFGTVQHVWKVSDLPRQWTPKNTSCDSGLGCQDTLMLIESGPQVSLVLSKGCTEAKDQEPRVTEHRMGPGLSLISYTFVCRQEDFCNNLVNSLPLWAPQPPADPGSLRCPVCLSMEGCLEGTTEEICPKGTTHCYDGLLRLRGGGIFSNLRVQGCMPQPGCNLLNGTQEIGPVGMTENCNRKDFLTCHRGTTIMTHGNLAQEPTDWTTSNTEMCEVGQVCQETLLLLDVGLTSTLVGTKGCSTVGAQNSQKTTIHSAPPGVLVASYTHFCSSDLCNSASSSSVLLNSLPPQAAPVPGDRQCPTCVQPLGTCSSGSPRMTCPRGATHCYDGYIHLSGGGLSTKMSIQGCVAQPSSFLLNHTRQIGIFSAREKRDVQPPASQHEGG
Assay [4] deals with T1, CLEC-2 recombinant ectodomain, Fc-tagged. Description: SPR; CLEC-2 or CD177 ectodomains immobilised by amine coupling on GLC (Proteon XPR36) or CM5 (Biacore 3000) chips; Avi-Fc-tagged PDPN as soluble analyte at the indicated concentrations; PBS with 0.01% Tween-20 (Proteon) or HBS-P pH 7.4 (Biacore). As to conditions: both partners purified.

T1 sequence (Q9P126 55-229): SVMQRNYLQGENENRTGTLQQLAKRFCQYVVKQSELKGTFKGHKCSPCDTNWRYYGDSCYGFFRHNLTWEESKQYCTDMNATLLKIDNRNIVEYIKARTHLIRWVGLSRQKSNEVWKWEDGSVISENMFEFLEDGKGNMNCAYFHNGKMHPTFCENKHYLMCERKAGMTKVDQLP

For the molecule “CD177 recombinant ectodomain, Fc-tagged (from UniProt Q8N6Q3 22-408) (Fc fusion)”, the inhibition of CAF contractility (gel contraction assay) by recombinant CD177 in assay [1] came to 20%.

B1: PDPN ectodomain, monomeric, Avi-tagged, site-specifically biotinylated (Fc tag removed) (domain or fragment, human, UniProt Q86YL7 23-131, looked up)
chain: ASTGQPEDDTETTGLEGGVAMPGAEDDVVTPGTSEDRYKSGLTTLVATSVNSVTGIRIEDLPTSESTVHAQEQSPSATASNVATSHSTEKVDGDTQTTVEKDGLSTVTL
modifications: biotin on the Avi tag (site-specific, in vitro, BirA)
notes: podoplanin (PDPN), human, ectodomain; the methods describe biotinylation of the Avi-tagged product after removal of the Fc; Also used here as the PDPN of the functional rows (there PDPN is endogenous on fibroblasts); also called podoplanin; gp38; source: mammalian cells, purified; biotinylated in vitro with BirA; not shown: Fc (human IgG1), C-terminal, cleaved
A word on the Kd: it is the concentration at which binding is half-saturated. For the molecule B1, the Kd stood at 210 ± 0.3 nM in assay [2] and 3300 nM in assay [3].

B2: PDPN ectodomain, Avi-Fc-tagged (Fc fusion, human, UniProt Q86YL7 23-131, looked up)
chain: ASTGQPEDDTETTGLEGGVAMPGAEDDVVTPGTSEDRYKSGLTTLVATSVNSVTGIRIEDLPTSESTVHAQEQSPSATASNVATSHSTEKVDGDTQTTVEKDGLSTVTL
notes: podoplanin (PDPN), human, ectodomain; pRK5 vector with C-terminal human IgG1 Fc; also called Avi-Fc-tagged PDPN; AviFc-tagged PDPN; source: mammalian cells, purified; not shown: Fc (human IgG1), C-terminal, kept
In the case of B2, in assay [4], the binding result was “binds”.
